Reference: paper PMC11203576

Legend:
Assay in all cases: SPR; Biacore T200; […] (0.01 M HEPES, 0.15 M NaCl, 3 mM EDTA, 0.05% surfactant P20, […]
[1] = molecular target: SARS-CoV-2 spike protein RBD, Omicron variant, sfGFP fusion (SARS-CoV-2) (UniProt P0DTC2)
[2] = molecular target: SARS-CoV-2 spike protein RBD, Alpha variant, sfGFP fusion (SARS-CoV-2) (UniProt P0DTC2)
[3] = molecular target: SARS-CoV-2 spike protein RBD, Delta variant, sfGFP fusion (SARS-CoV-2) (UniProt P0DTC2)

Jacalin (natural protein) was tested, and the Kd [1] was 478 nM, the Kd [2] was 320 nM and the Kd [3] was 339 nM.

With “Recombinant Microcystis viridis NIES-102 lectin (rMVL) (from UniProt Q9RHG4 1-114) (natural protein)” the Kd [1] was 2730 nM.
